Measurements taken from publication PMC9966725, “Preclinical Evaluation of a Lead Specific Chelator (PSC) Conjugated to Radiopeptides for ^203Pb and ^212Pb-Based Theranostics” (Pharmaceutics, 2023).

How the values were obtained:
[1] = TCMC chelator in an anti-CD37 radioimmunoconjugate; cited from earlier work
Source text: Potential ambiguity in these predictions arises due to the nature of the ^212Pb decay series. The decay of ^212Pb to ^212Bi might lead to a decoupling of the progeny ^212Bi from the chelator, adding uncertainty to the biodistribution of radioactivity, especially the α-emitters (i.e., ^212Bi, ^212Po). Using particle and heavy ion transport code system (PHITS) modeling, we have shown that α-particles contribute to more than 90% of dose deposition in 10 µm diameter single cells and 1 cm diameter micro-metastasis, while the dose from β-particles becomes more significant ...

[2] = Stability of radiopeptide in saline, radio-HPLC; format: physicochemical; details: 24 h storage in saline, C18, fractions counted on gamma counter
Method: Using [^203Pb]Pb-PSC-PEG-T surrogate, radiochemical stability of [^203Pb]Pb-PSC-PEG-T in saline was monitored for 72 h. Similarly, single species of [^212Bi]Bi-PSC-PEG-T in saline were also monitored for 5 h (five half-lives of ^212Bi). [^203Pb]Pb-PSC-PEG-T and [^212Bi]Bi-PSC-PEG-T were radiolabeled and purified on Sep-Pak® C18 SPE columns as previously described. Next, 7.4 MBq mL^−1 of purified [^203Pb]Pb-PSC-PEG-T and [^212Bi]Bi-PSC-PEG-T were stored in saline supplemented with 5% EtOH and 1 mg mL^−1 sodium ascorbate for 72 h and 5 h, respectively, followed by analysis of radiochemical purity by radio-iTLC method. Then, radiochemical stability of [^212Pb]Pb-PSC-PEG-T and progeny [^212Bi]Bi-PSC-PEG-T were determined by radio-iTLC after storage of 37 MBq mL^−1 radiolabeled [^212Pb]Pb-PSC-PEG-T in saline for 24 h, and further confirmed by radio-HPLC analysis. In human serum, radiochemical stability of [^212Pb]Pb-PSC-PEG-T and progeny [^212Bi]Bi-PSC-PEG-T were determined after incubation of 3.7 MBq [^212Pb]Pb-PSC-PEG-T in 1 mL human serum at 37 °C for 24 h. In addition, metabolic stability of Pb-PSC-PEG-T radiopeptide in serum was determined by radio-HPLC after incubating [^203Pb]Pb-PSC-PEG-T surrogate in human serum for 55 h (five half-lives of ^212Pb). […] The supernatant was collected and analyzed on radio-HPLC. […]

[3] = Radiochemical stability of radiometal complex in saline, radio-iTLC; format: physicochemical; details: 37 MBq mL^-1 in saline at room temperature for 24 h, regardless of PSC-PEG-T concentration (1, 3, 5 µM)
Method: Using [^203Pb]Pb-PSC-PEG-T surrogate, radiochemical stability of [^203Pb]Pb-PSC-PEG-T in saline was monitored for 72 h. Similarly, single species of [^212Bi]Bi-PSC-PEG-T in saline were also monitored for 5 h (five half-lives of ^212Bi). [^203Pb]Pb-PSC-PEG-T and [^212Bi]Bi-PSC-PEG-T were radiolabeled and purified on Sep-Pak® C18 SPE columns as previously described. Next, 7.4 MBq mL^−1 of purified [^203Pb]Pb-PSC-PEG-T and [^212Bi]Bi-PSC-PEG-T were stored in saline supplemented with 5% EtOH and 1 mg mL^−1 sodium ascorbate for 72 h and 5 h, respectively, followed by analysis of radiochemical purity by radio-iTLC method. Then, radiochemical stability of [^212Pb]Pb-PSC-PEG-T and progeny [^212Bi]Bi-PSC-PEG-T were determined by radio-iTLC after storage of 37 MBq mL^−1 radiolabeled [^212Pb]Pb-PSC-PEG-T in saline for 24 h, and further confirmed by radio-HPLC analysis. In human serum, radiochemical stability of [^212Pb]Pb-PSC-PEG-T and progeny [^212Bi]Bi-PSC-PEG-T were determined after incubation of 3.7 MBq [^212Pb]Pb-PSC-PEG-T in 1 mL human serum at 37 °C for 24 h. In addition, metabolic stability of Pb-PSC-PEG-T radiopeptide in serum was determined by radio-HPLC after incubating [^203Pb]Pb-PSC-PEG-T surrogate in human serum for 55 h (five half-lives of ^212Pb). Following the incubation, serum protein was precipitated in ice-cold methanol (1:1.5 v/v) for 10 min, followed by centrifugation at 10,000× g for 10 min. The supernatant was collected and analyzed on radio-HPLC.
In radio-iTLC analysis, 0.1 M NaOAc with 1 mM DTPA was used as mobile phase for ^203Pb, ^212Pb, ^212Bi. Citric acid (0.1 M) was used as mobile phase for ^68Ga. Upon radio-iTLC analysis, 2 µL aliquot sample was spotted on the radio-iTLC strips (2 × 10 cm) and developed in the mobile phase. Radioactivity of ^203Pb and ^212Pb was measured on NaI(Tl) gamma spectroscope using 279 keV and 238 keV gamma peaks, respectively. Radioactivity of ^212Bi on radio-iTLC was measured on the Ludlum Model 3030 α-particle counter. Radio-HPLC analysis was conducted on Agilent 1260 (Agilent, Santa Clara, CA, USA). Binary mobile phases were applied to run 5–60% phase B (acetonitrile) over phase A (0.1% TFA in water) over 10 min on ZORBAX RR Eclipse XDB-C18 column (4.6 × 150 mm, 5 µm). Radioactivity of ^203Pb was measured on flow-through 105S-1 single channel radiation detector (Corroll & Ramsey, Fort Collins, CO, USA). To measure ^212Pb and ^212Bi activity on radio-HPLC, eluate was collected every 10 s on a HPLC fraction collector. Radioactivity of ^212Pb and ^212Bi in each collected eluate was measured on Cobra II automated gamma counter using 238 keV and 583 keV gamma peaks immediately after collection.

[4] = system: AR42J xenograft; assay: in vivo; set-up: species or system mice; details: female, athymic nude, mouse, 24 h
Method: (§1) Biodistribution of [^212Pb]Pb-PSC-PEG-T and progeny ^212Bi^3+ was determined in two animal models, including female naïve CD-1Elite mice and athymic mice bearing AR42J tumor xenografts. SSTR2-positve AR42J cells were cultured in 10% Minimum Essential Medium (MEM) supplemented with 10% fetal bovine serum (FBS), 100 units mL^−1 penicillin, and 100 units mL^−1 streptomycin 37 °C in a humidified atmosphere (5% CO2). All animal studies were performed in accordance with the Guide for the Care and Use of Laboratory Animals, according to protocols approved by the University of Iowa Animal Care and Use Committee (protocol#1122453 approved on 16 February 2022). Xenograft of AR42J tumor was developed by subcutaneous (s.c.) injection of 1 × 10^6 cells at the left shoulder of female athymic nude mice. [^212Pb]Pb-PSC-PEG-T was radiolabeled and purified as described above, and kept at room temperature away from light for 3 h before injection, to allow progeny ^212Bi to approach equilibrium before injection. Upon assay, 74 kBq [^212Pb]Pb-PSC-PEG-T (peptide mass = 5–10 pmole) were injected via tail vein (n = 2–3). Animals were euthanized at designated time points (1, 5, 24 h for naïve CD-1 mice; 1, 4 h for AR42J-bearing mice). Organs of interest and tumors were collected, rinsed, and weighed. Radioactivity of ^212Pb and ^212Bi in each sample was measured on an automated gamma counter by 238 keV and 583 keV gamma peaks, respectively. ^212Bi was purified from the generator eluate on RE2 resin and collected in pH = 6 sodium acetate as described above. Biodistribution of free ^212Bi in normal organs was determined at 2 h post injection of 74 kBq ^212Bi in naïve female CD-1 Elite mice (n = 3). Radioactivity in samples was decay corrected and data were expressed as percent injected dose per gram of tissue (%ID/g). SPECT imaging of [^203Pb]Pb-PSC-PEG-T and [^212Pb]Pb-PSC-PEG-T in female athymic nude mice bearing AR42J xenograft (n = 2) was conducted on Bioemtech Gamma-Eye Imaging system (Bioemtech, Athens, Greece) with 30–500 keV dynamic range and 1.9 mm spatial resolution. Whole body 2D-SPECT imaging of [^203Pb]Pb-PSC-PEG-T and [^212Pb]Pb-PSC-PEG-T were collected at 3 h and 24 h (n = 2) post injection of 1.8 MBq [^203Pb]Pb-PSC-PEG-T (52 MBq nmole^−1) and 3.7 MBq [^212Pb]Pb-PSC-PEG-T (20 MBq nmole^−1). SPECT images were generated by acquiring ten 30 s projections. Imaging data were reconstructed and normalized to percent of injected dose (%ID) in tumor and kidneys based on region of interest (ROI) analysis on VISUAL-Eyes software (Bioemtech, Athens, Greece). Animals were euthanized after conclusion of the study at 24 h post injection. Tumor xenografts and organs of interest were collected and weighed. Radioactivity of ^203Pb or ^212Pb was determined on automated gamma counter and normalized to %ID/g.

[5] = system: SSTR2-positive AR42J xenografts; assay: in vivo; set-up: species or system mice; details: female, athymic nude, mouse, iv, 74 kBq, 1 h
Method: as §1

| SMILES | ^212Bi^3+ ejected from chelator [1] [%] | radiochemical purity (radiometal remained incorporated as radiopeptide) [2] [%] | ^212Pb remained in PSC-PEG-T [3] | activity in lungs [4] [%ID/g] | accumulation in adrenal glands [5] [%ID/g] | accumulation in bones [5] [%ID/g] | accumulation in kidneys [5] [%ID/g] | accumulation in liver [5] [%ID/g] | accumulation in spleen [5] [%ID/g] |
| --- | --- | --- | --- | --- | --- | --- | --- | --- | --- |
| NC(=O)CN1CCN(CC(N)=O)CCN(CC(N)=O)CCN(CC(N)=O)CC1 [TCMC, 1,4,7,10-Tetrakis(carbamoylmethyl)-1,4,7,10-tetraazacyclododecane] | 16 |  |  |  |  |  |  |  |  |
| C[C@@H](O)[C@@H]1NC(=O)[C@H](CCCCN)NC(=O)[C@@H](Cc2c[nH]c3ccccc23)NC(=O)[C@H](Cc2ccc(O)cc2)NC(=O)[C@@H](NC(=O)[C@@H](Cc2ccccc2)NC(=O)CCOCCOCCNC(=O)CN2CCN(CC(=O)O)CCN(CC(N)=O)CCN(CC(=O)O)CC2)CSSC[C@@H](C(=O)N[C@H](CO)[C@@H](C)O)NC1=O [[^212Pb]Pb-PSC-PEG-T] [metal not drawn] |  | > 95 | More than 99.6% | 0.3 | 3.6 | 1.4 | 28.1 | 0.8 | 0.6 |
